Test results from publication PMC9703140 (Nature chemical biology, 2022).
pKd: −log10 of the molar value.

What was measured:
[1] = biological target: T1, MHC-related protein 1 (MR1), hpMR1 (Homo sapiens, UniProt Q95460); assay: DSF of refolded complex; format: binding
[2] = biological target: T1, MHC-related protein 1 (MR1), hpMR1; assay: 1D […] NMR titration; format: binding
[3] = biological target: TAPBPR^WT (luminal domain of TAPBPR C94S); assay: SPR

Compound | pKd [3] | also measured
O=Cc1c(O)ccc2ccccc12 [2OH1NA, 2-hydroxy-1-naphthaldehyde] |  | DSF of refolded complex (Tm 55.3 °C); NMR methyl HMQC [1]: 55.3 °C
O=C(O)Cc1ccccc1Nc1c(Cl)cc(F)cc1Cl [19F-DCF, 2-(2-((2,6-dichloro-4-fluorophenyl)amino)phenyl)acetic acid] |  | pKd [2]: 4.44
Ac-6-FP loaded hMR1/hβ2m (wild type) (from UniProt P61769 21-119) (complex) | 4.00 | 
TAX9/HLA-A*02:01/hβ2m (from UniProt P61769 21-119) (peptide-MHC) | 4.73 | 
UV-irradiated HLA-A*02:01/hβ2m (empty, peptide-deficient) (from UniProt P61769 21-119) (complex) | 7.09 | 

More lines, main results first:

pKd [3] | Compound | also measured
4.00 | Ac-6-FP loaded hMR1 C262S/hβ2m (from UniProt P61769 21-119) (complex) | 
3.98 | Ac-6-FP–hpMR1–bβ2m (from UniProt Q95460 23-290; P01888 21-118) (complex) | 
